US20260274955A1 (JANUX THERAPEUTICS, published 2026)

Assays:
[1] = target: T1, Anti-CD28 Fab (SEQ ID NOs: 202, 203); test: phage binding ELISA, Fab on plate;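 note: clonal phage supernatant ELISA, wells preincubated with CD28 antigen or blocking buffer only, then bound phage detected using HRP-linked anti-M13 antibody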
T1 construct: biotinylated and captured on neutravidin coated plates in the phage ELISA
Procedure: (§1) After panning, phage infected bacteria were plated out and colonies picked into 96 well blocks. Clonal phage was then amplified and separated from bacterial cells via centrifugation.
(§2) Clonal phage were harvested as crude supernatants and screened via standard ELISAs. […] Prior to the addition of clonal phage, wells were incubated with blocking buffer and CD28 antigen or blocking buffer alone. Without washing or aspirating, clonal phage supernatants were then added to the wells and incubated for a short time. Wells were then washed followed by detection of bound phage using a horse radish conjugated anti-M13 antibody. Clonal phage of interest were then sent for sequence analysis.

[2] = target: T1, Anti-CD28 Fab (SEQ ID NOs: 202, 203); test: phage binding ELISA, Fab on plate, CD28 as competitor
Procedure: as §1, §2

[3] = target: anti-CD28 Fab (SEQ ID NOs: 202, 203); test: phage ELISA, Fab on plate;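 note: ELISA of crude clonal phage supernatants on the plate, wells preloaded with CD28 antigen or only blocking buffer, captured phage read out via HRP-linked anti-M13 antibody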
Procedure: as §1, §2

[4] = target: anti-CD28 Fab (SEQ ID NOs: 202, 203); test: phage ELISA, Fab on plate, CD28 antigen as competitor;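 note: wells pre-incubated with CD28 antigen in blocking buffer (reference: blocking buffer only) before adding crude clonal phage supernatant, bound phage read with HRP-coupled anti-M13 antibody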
Procedure: as §1, §2

anti-CD28 Fab (SEQ ID NOs: 202, 203), sequence (VH, as listed by the source, chain 1 of 2): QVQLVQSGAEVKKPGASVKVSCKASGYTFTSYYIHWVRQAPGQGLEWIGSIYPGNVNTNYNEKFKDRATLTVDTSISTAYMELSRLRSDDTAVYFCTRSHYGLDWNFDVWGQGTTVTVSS
anti-CD28 Fab (SEQ ID NOs: 202, 203), sequence (VL, as listed by the source, chain 2 of 2): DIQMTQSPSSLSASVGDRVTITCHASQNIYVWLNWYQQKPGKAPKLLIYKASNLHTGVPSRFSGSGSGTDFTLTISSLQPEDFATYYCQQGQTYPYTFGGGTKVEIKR
T1 sequence (VH, as listed by the source, chain 1 of 2): as the sequence (VH, as listed by the source, chain 1 of 2) above
T1 sequence (VL, as listed by the source, chain 2 of 2): as the sequence (VL, as listed by the source, chain 2 of 2) above

| Binder | Anti-CD28 Fab (SEQ ID NOs: 202, 203) signal [1] | Anti-CD28 Fab signal in the presence of CD28 [2] | Anti-CD28 Fab signal [3] | Anti-CD28 Fab signal in the presence of CD28 [4] |
| --- | --- | --- | --- | --- |
| TCSAGAMWTWPYCF [Phage-989] | 1.93 | 0.08 | – | – |
| TCSAGAGYPWPLCY [Phage-991] | 1.92 | 0.08 | – | – |
| TCSAGATWPWPICL [Phage-997] | 1.89 | 0.08 | – | – |
| LCNAGAMYKWPTCL [Phage-987] | 1.94 | 0.06 | – | – |
| LCNAGAPYKWPTCL [Phage-1050] | 1.66 | 0.07 | – | – |
| TCAAGATYMWPVCL [Phage-1180] | – | – | 1.24 | 0.07 |
| PCSAGATYAWLYCV [Phage-1011] | 1.81 | 0.06 | – | – |
| MCSAGAMYPWPLCL [Phage-988] | 1.93 | 0.07 | – | – |
| TCAAGANYSWPACL [Phage-1199] | – | – | 1.14 | 0.08 |
| LCRAGAMWPWPTCL [Phage-1005] | 1.83 | 0.06 | – | – |
| TCADGAFWQWPVCL [Phage-1184] | – | – | 1.22 | 0.07 |
| TCSAGATYAWPACY [Phage-1002] | 1.84 | 0.14 | – | – |
| TCAAGAVWTWPICF [Phage-1183] | – | – | 1.23 | 0.05 |
| SCSAGATWAWPQCF [Phage-1194] | – | – | 1.19 | 0.08 |
| SCSAGASLQLSICL [Phage-992] | 1.92 | 0.06 | – | – |
| TCAAGAMWQWPVCL [Phage-1010] | 1.81 | 0.06 | – | – |
| RCAAGVMYDWPVCL [Phage-1043] | 1.7 | 0.07 | – | – |
| TCSAGASWGWPWCL [Phage-1185] | – | – | 1.22 | 0.07 |
| TCAAGAYWTWPACF [Phage-990] | 1.93 | 0.09 | – | – |
| TCSAGATFHWPQCF [Phage-1006] | 1.83 | 0.08 | – | – |
| SCAAGATYSWPACL [Phage-1177] | – | – | 1.25 | 0.07 |
| LCSAGAMYPWPVCL [Phage-1193] | – | – | 1.19 | 0.08 |
| TCSAGATYIWPMCF [Phage-995] | 1.9 | 0.08 | – | – |
| TCSAGAYYAWPVCL [Phage-1004] | 1.84 | 0.08 | – | – |
| TCSAGFSYSWPACF [Phage-1000] | 1.86 | 0.07 | – | – |
| TCSAGAHYPWPDCI [Phage-985] | 1.95 | 0.07 | – | – |

| Binder | Anti-CD28 Fab (SEQ ID NOs: 202, 203) signal [1] | Anti-CD28 Fab signal in the presence of CD28 [2] | Anti-CD28 Fab signal [3] | Anti-CD28 Fab signal in the presence of CD28 [4] |
| --- | --- | --- | --- | --- |
| SCADGFNYVWPLCF [Phage-1198] | – | – | 1.14 | 0.08 |
| SCAAGFDYGWPMCL [Phage-1197] | – | – | 1.16 | 0.06 |
| SCAAGATWKWPECL [Phage-1181] | – | – | 1.24 | 0.07 |
| LCKPGVPYQWPTCF [Phage-1009] | 1.82 | 0.05 | – | – |
| PCSDGVAYPWPYCV [Phage-1191] | – | – | 1.2 | 0.06 |
| TCSAGATYSWPQCL [Phage-1003] | 1.84 | 0.07 | – | – |
| LCKPGVPNSWPTCL [Phage-984] | 1.95 | 0.06 | – | – |
| SCSAVFSYRWPKCL [Phage-1195] | – | – | 1.18 | 0.06 |
| SCAAGAHWSWPVCF [Phage-1192] | – | – | 1.2 | 0.08 |
| LCEEFFHYSWPLCL [Phage-1190] | – | – | 1.21 | 0.06 |
| SCAAGAAYPWPACL [Phage-1013] | 1.8 | 0.06 | – | – |
| NCAAGAMYSWPTCL [Phage-1178] | – | – | 1.25 | 0.07 |
| TCAAGASYPWPACL [Phage-998] | 1.89 | 0.09 | – | – |
| SCAAVFSFPWSPCL [Phage-999] | 1.87 | 0.08 | – | – |
| TCSAGAHFAWPMCF [Phage-1045] | 1.69 | 0.07 | – | – |
| TCSAGATWAWPSCF [Phage-993] | 1.92 | 0.1 | – | – |
| LCAAGATYPWPDCV [Phage-1188] | – | – | 1.21 | 0.05 |
| TCSAGAHWTWPLCF [Phage-1044] | 1.69 | 0.06 | – | – |
| TCSAGAHYVWPMCF [Phage-994] | 1.91 | 0.17 | – | – |
| TCTAGFSYNWPMCF [Phage-1001] | 1.85 | 0.06 | – | – |
| SCSAGAGWAWPMCF [Phage-1196] | – | – | 1.16 | 0.08 |
| TCSAGAHYEWPYCL [Phage-1007] | 1.82 | 0.11 | – | – |
| TCAAGATWLWPWCL [Phage-1182] | – | – | 1.23 | 0.07 |
| QCAAGASYPWPVCL [Phage-1008] | 1.82 | 0.07 | – | – |
| TCAAGANWPWPECL [Phage-1189] | – | – | 1.21 | 0.08 |
| TCRAGATYNWPFCL [Phage-996] | 1.9 | 0.07 | – | – |
